The text below walks through data of patent publication US12083134B2, “Anacardic acid for neural repair” (Vanderbilt University, priority 2018, dated 2024).

One assay has as its system MBP in OPCs. Nature of the assay: Western blot of MBP expression in OPC cultures treated with IL-33. The assay is classed as cell-based, rat. The settings on record: OPCs treated with IL-33. The source says: (§1) FIG. 7A provides Western blot analysis of MPB expression in OPC cultures treated with IL-33. FIG. 7B provides qRT-PCR analysis showing the gene expression of transcription elements that bind to the MPB promoter region and major myelin genes treated with IL-33. T3 is the thyroid hormone internal positive control.
(§2) The importance of IL-33 as an inducer of a number of myelin genes has been shown. […] The expression of MBP, myelin oligodendrocyte glycoprotein (Mog), and proteolipoprotien (Plp) along with mRNAs of Purα, Sox10, and Sp-1 in OPCs cultured with IL-33 was quantified. Purα, Sox10, and Sp-1 are transcription elements that bind to the promoter region of MBP to initiate MBP gene expression.

The next assay has as its system OPCs. The assay can be described thus: Maturation of OPCs cultured with IL-33 (O4 and MBP expressing cells). Format: cell-based, rat. The source says: The graphs to the right show the quantitation of O4 and MBP.
The formation of CNS myelin is dependent on the differentiation and maturation of OPCs. The process of maturation is well recognized both in vitro and in vivo. Immature OPCs express the receptor for platelet derived growth factor (PDGFR) and also express proteins that are recognized by antibody A2B5, anti O4, and anti Olig2 antibodies. As oligodendrocytes mature they lose their reactivity to A2B5, PDGFR, and Olig 2 and they begin to express myelin proteins including MBP. The degree of maturation can be assessed by determining the percentage of cells expressing early lineage markers such as O4 and the later markers such as MBP. The expression of O4 and MBP in OPCs cultured for 4 and 14 days in the presence or absence of IL-33 was determined. […] The increase seen with IL-33 was similar to that seen with AA.

Assay [1] concerns MBP, Mog, Plp, Purα, Sox10, Sp-1 in OPCs. The assay can be described thus: qRT-PCR of myelin genes and MBP promoter transcription elements in OPCs cultured with IL-33. The assay is classed as cell-based, rat.
Description: as §1, §2
For orientation: Real-time PCR tracks product formation cycle by cycle.

For assay [2], the system named is dorsal root ganglia-OPC co-cultures. The assay can be described thus: In vitro myelination of axons in dorsal root ganglia-OPC co-cultures with IL-33. The assay is classed as cell-based. To be noted: DRG-OPC co-cultures, rat rIL-33 10 ng/ml, 16 days. As for the experimental part:
FIG. 9 provides images showing the myelination of dorsal root ganglion axons. The arrows point to the longer segments of myelinated internodes in cultures with added IL-33 (20×).
In preliminary studies, in vitro myelination of axons in the presence of IL-33 using dorsal root ganglia-OPC co-cultures was examined. Dorsal root ganglions (DRGs) were dissected from postnatal day 2 (P2) rat pups and cultured by established methods. Once the OPCs attached to the plates, they were treated with rat rIL-33 (10 ng/ml) for 16 days. At the end of the experiment, cells were stained with tubulin β for axons and MBP for myelin forming oligodendrocytes. Quantitation of myelin in axons was done using image analysis and the amount of myelin around the axons was determined. […] When compared to vehicle treated controls, there was an 18% increase in MBP in cultures treated with IL-33.

B1: IL-33: recombinant cytokine IL-33 (rat rIL-33) added exogenously to OPC cultures (protein, UniProt Q66H70 1-264, looked up)
Interleukin-33: MRPRMKYSNSKISPAKCDSTSGRALVPPCKITRSQQKTKDICHVYCMRLRSGLTIRKETCYFGKEPAKRYSLKSGSKHEGRLSTCLPDSRKRSLLGSIQAFAASVDTLSIQGTSLLTESCALSTYNDQSVSFVLENGCYVINVEDCGKNQEKDKVLLRYYESSFPAQSGDGVDGKKLMVNMSPIKDTDIWLNANDKDYSVELQKGDVSPPDQAFFVLHKKSSDFVSFECKNLPGTYIGVKDNQLALVEENDESCNNIMFKLSKM
On to B1, for which the “induction of MBP” value in the assay on MBP in OPCs stood at 26%. Also, the “increase in O4 expressing cells vs normal growth medium” value in the assay with OPCs (OPCs cultured with IL-33, 4 days) was determined as 2.3 fold. In addition, the “formation of mature oligodendrocytes expressing MBP” value with OPCs (OPCs cultured with IL-33, 14 days) is “increased formation of mature oligodendrocytes”. Moreover, in assay [1], the “induced expression of MBP” value was 4.5 fold, the “induced expression of Mog” value is reported as 3.8 fold, the “induced expression of PLP” value came to 2.3 fold and the “induced expression of Purα” value came out at 2.1 fold. For the same molecule, in assay [1], the “induced expression of Sox10” value is 3.9 fold and the “induced expression of Sp1” value turned out to be 2.2 fold. For the same molecule, the “increase in MBP vs vehicle treated controls” value in assay [2] was determined as 18%.
